To fix the notation:
B2: murine VEGF (mVEGF) (ligand, mouse, UniProt Q00731-2 27-190, looked up)
chain: APTTEGEQKSHEVIKFMDVYQRSYCRPIETLVDIFQEYPDEIEYIFKPSCVPLMRCAGCCNDEALECVPTSESNITMQIMRIKPHQSQHIGEMSFLQHSRCECRPKKDRTKPENHCEPCSERRKHLFVQDPQTCKCSCKNTDSRCKARQLELNERTCRCDKPRR
notes: also called mouse VEGF

Test [1] deals with B2. As to the kind of experiment: BIAcore or solution binding ELISA, Fab. In general terms: SPR reads the build-up and loss of mass on a sensor chip optically.
For test [2], the target named is T1, Flt-1 ECD fragment (Ig domain1-5) (Flt-1D1-5) (UniProt P17948 27-553, limits assumed).
T1 construct: domain: Flt-1 ECD fragment (Ig domain1-5); also called Flt-1 receptor
T1 sequence (P17948 27-553 limits assumed): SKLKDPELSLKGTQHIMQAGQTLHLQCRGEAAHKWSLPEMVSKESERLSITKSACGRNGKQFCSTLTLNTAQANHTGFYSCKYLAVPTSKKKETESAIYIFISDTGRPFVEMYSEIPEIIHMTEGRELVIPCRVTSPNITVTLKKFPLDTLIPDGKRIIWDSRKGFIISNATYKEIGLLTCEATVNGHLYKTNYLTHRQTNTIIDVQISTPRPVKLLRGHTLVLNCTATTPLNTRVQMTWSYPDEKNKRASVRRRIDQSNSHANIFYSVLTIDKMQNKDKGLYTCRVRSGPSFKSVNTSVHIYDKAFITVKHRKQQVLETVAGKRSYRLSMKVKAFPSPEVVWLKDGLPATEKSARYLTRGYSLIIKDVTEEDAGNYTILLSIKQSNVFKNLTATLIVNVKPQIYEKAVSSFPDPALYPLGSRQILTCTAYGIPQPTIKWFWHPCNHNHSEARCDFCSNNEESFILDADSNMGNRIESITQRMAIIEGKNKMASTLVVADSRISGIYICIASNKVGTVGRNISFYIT
As to the kind of experiment: phage ELISA with wild type hVEGF phage. (An ELISA detects its analyte on a solid surface through an enzyme-linked reagent.)

Test [3] deals with T2, full extracellular domain (ECD) of KDR (UniProt P35968 20-764, limits assumed).
T2 construct: extracellular domain; also called KDR ECD
T2 sequence (P35968 20-764 limits assumed): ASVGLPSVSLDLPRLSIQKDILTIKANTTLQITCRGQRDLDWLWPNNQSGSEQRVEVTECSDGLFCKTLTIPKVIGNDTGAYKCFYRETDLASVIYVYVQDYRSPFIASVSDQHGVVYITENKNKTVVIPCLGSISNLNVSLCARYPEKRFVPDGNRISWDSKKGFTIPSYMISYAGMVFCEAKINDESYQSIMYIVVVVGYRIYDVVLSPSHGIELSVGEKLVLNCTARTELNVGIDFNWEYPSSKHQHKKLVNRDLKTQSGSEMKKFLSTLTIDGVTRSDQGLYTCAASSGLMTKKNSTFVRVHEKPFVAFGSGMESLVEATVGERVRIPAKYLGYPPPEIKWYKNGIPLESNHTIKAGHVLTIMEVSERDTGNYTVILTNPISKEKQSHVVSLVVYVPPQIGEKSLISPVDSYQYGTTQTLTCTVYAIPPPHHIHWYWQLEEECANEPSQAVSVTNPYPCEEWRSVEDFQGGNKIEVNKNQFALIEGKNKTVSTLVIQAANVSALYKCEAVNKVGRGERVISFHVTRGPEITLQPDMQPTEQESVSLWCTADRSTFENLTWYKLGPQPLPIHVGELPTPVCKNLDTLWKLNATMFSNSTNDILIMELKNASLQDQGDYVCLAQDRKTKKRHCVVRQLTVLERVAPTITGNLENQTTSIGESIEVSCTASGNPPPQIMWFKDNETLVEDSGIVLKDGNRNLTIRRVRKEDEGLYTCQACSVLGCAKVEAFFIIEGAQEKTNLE
As to the kind of experiment: phage-blocking assay: receptor fragment at increasing concentration competes with phage clones for mVEGF-coated wells.

A further test addresses T3, murine VEGF-D (mVEGF-D) (mouse, UniProt P97946 98-206, limits assumed).
T3 sequence (looked up): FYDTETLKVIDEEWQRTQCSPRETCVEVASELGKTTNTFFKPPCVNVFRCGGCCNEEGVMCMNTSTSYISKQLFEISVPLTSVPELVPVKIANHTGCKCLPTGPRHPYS
As to the kind of experiment: direct ELISA on coated homolog (2 ug/ml) with increasing G6 Fab.

For test [4], the target named is T4, mouse placenta growth factor (PlGF-2) (mouse, UniProt P49764 19-158, limits assumed).
T4 construct: also called murine PlGF-2
T4 sequence (looked up): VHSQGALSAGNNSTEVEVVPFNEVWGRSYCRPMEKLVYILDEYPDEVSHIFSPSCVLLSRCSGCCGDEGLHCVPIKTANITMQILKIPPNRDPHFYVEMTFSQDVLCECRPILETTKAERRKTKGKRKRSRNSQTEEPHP
The test is described as above.

Test [5] addresses T5, human placenta growth factor (PlGF-2) (human, UniProt P49763-3 19-170, limits assumed).
T5 construct: also called human PlGF-2
T5 sequence (looked up): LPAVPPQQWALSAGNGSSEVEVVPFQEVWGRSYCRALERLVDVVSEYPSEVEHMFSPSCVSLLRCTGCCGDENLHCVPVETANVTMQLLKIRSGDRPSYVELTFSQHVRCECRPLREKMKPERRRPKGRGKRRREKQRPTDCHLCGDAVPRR
Described as above.

The target of a further test is T6, human VEGF-B (human, UniProt P49765-2 22-188, limits assumed).
T6 sequence (looked up): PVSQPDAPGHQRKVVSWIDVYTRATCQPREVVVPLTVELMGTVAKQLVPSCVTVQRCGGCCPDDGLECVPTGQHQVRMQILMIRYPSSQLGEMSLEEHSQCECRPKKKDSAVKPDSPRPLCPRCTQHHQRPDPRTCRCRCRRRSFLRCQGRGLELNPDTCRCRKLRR
The test is described as above.

Test [6] deals with B2. Description: phage-blocking assay: receptor fragment at increasing concentration competes with phage clones for mVEGF-coated wells.

Consider Y0317 Fab, for which, in the test with murine VEGF (mVEGF) [1], the affinity is 350 nM.

B1: hVEGF displayed on phage (hVEGF1-109, wild type) (ligand, human, UniProt P15692 207-315, looked up)
chain: APMAEGGGQNHHEVVKFMDVYQRSYCHPIETLVDIFQEYPDEIEYIFKPSCVPLMRCGGCCNDEGLECVPTEESNITMQIMRIKPHQGQHIGEMSFLQHNKCECRPKKD
notes: Phage fusion partner not described; also called hVEGF displaying phage; hVEGF-phage
For the molecule B1, in test [2], the binding result was “binds”.

Regarding B2, the binding result in test [3] is given as “binds”.

B3: G6 Fab (Fab, V domains shown)
VH: EVQLVESGGGLVQPGGSLRLSCAASGFTISDYWIHWVRQAPGKGLEWVAGITPAGGYTYYADSVKGRFTISADTSKNTAYLQMNSLRAEDTAVYYCARFVFFLPYAMDYWGQGTLVTVSS
VL: DIQMTQSPSSLSASVGDRVTITCRASQDVSTAVAWYQQKPGKAPKLLIYSASFLYSGVPSRFSGSGSGTDFTLTISSLQPEDFATYYCQQSYTTPPTFGQGTKVEIKR
notes: Purified Fab from E. coli in most assays; also called Fab G6; FabG6
For the molecule B3, the binding result (in the test with murine VEGF-D (mVEGF-D); in test [4]; in test [5]; in the test with human VEGF-B) was “no binding” each time.

B4: second domain of Flt-1 (Flt-1D2) (receptor, UniProt P17948 129-229, looked up)
chain: SDTGRPFVEMYSEIPEIIHMTEGRELVIPCRVTSPNITVTLKKFPLDTLIPDGKRIIWDSRKGFIISNATYKEIGLLTCEATVNGHLYKTNYLTHRQTNTI
notes: domain: second domain of Flt-1 (Flt-1D2)
Turning to B4, in the test with murine VEGF (mVEGF) [6], the binding result is given as “binds”.

The record behind these values is patent publication US20100189719A1 (published 2010).
